What is called stoichiometry N is the number of molecules, sites or subunits per partner or assembly.

For assay [1], the target named is central region of the human metapneumovirus phosphoprotein (HMPV P residues 158-237) (human metapneumovirus, strain NL1-00). In words: SAXS; Pced in solution at 3-6 mg/ml, 20 C; 20 mM Tris pH 7.5 with 150 mM NaCl, 800 mM NaCl, or NaCl plus 1 M NDSB-201; molecular weight from the volume of correlation Vc compared with the mass of a tetramer.
Assay [2] concerns the target core region of Pced (P_(core)), degradation fragment of HMPV P 158-237 found in the crystal (human metapneumovirus, strain NL1-00). In words: crystal structure; vapor diffusion, 25 % PEG 3350, 100 mM HEPES pH 7.5, 20 C, crystal after ~142 days; 3.1 A, molecular replacement with the ab initio P_(core) model; 2 tetramers in the asymmetric unit.

With “central region of the human metapneumovirus phosphoprotein (HMPV P residues 158-237) (domain or fragment)”, in assay [1], the stoichiometry N is 4.

“core region of Pced (P_(core)), degradation fragment of HMPV P 158-237 found in the crystal (domain or fragment)” registered a stoichiometry N in assay [2] of 4.

For the origin of these results see PMC3817118.
